This note sets out measurements from publication PMC12239582, “The cyclic di-GMP receptor YcgR links the second messenger with the putrescine quorum sensing system in modulation of Dickeya oryzae motility” (mBio, 2025).

For this assay, the target named is T1, SpeA-His (Dickeya oryzae EC1, UniProt A0AB39IRQ5 1-658).
T1 sequence (looked up): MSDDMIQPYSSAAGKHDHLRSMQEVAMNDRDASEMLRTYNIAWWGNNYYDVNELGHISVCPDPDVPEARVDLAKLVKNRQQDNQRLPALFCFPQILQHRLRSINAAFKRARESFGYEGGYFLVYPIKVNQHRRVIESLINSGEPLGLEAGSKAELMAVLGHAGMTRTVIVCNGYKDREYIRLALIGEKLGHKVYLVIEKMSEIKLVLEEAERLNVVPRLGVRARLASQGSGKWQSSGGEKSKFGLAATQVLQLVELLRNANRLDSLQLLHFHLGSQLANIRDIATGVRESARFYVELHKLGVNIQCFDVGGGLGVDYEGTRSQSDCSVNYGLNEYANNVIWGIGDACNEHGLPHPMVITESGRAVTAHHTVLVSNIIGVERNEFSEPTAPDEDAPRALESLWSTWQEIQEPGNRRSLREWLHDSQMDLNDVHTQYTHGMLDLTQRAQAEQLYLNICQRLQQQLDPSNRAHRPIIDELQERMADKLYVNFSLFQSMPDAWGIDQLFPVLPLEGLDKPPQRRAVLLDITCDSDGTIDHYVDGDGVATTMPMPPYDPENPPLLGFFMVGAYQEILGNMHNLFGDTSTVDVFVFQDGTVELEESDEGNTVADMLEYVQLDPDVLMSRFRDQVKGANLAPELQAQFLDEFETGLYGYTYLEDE
Briefly: cell-based or functional assay.

B1: GST-YcgR (natural protein)
chain: MDVVDDNMKEQYARRGKMAICATLRGLQKQDATVMVYHTHGQFISKILEVDSDEEEFLFDLGALERENSRALFAGELGFVAETAGAKVEFRTTIIRTVEHDNLPAFCAAIPDVLYYIQRRNFFRINSPAWPPMVCRGELPDSTYFEFNLKDLSLGGLCMYTDDQGLAVLFEPGMILKNVDVDLASYGQFCLDMEFVNHATTKVVDSKGEVKQIERLSFKFPTLSAVQERGLQQVITELELDQNEKRKRLR
In the case of B1, the “yield of agmatine made by SpeA in vitro (OPA fluorescence) with YcgR added at a 2:1 ratio, against the reaction without YcgR; 75% increase at 1 h to about 160% at 2 h” value is roughly 160%.
